B1: Aip5 loop peptide (TSLAGGGFHM) (peptide)
peptide: TSLAGGGFHM
notes: also called loop containing peptide; peptides of Aip5 loop
B2: Aip5-C-3m (L1150A, N1162A, S1165C) (domain or fragment, S. cerevisiae, UniProt P43597 1110-1233, looked up)
chain: DSTTQTTEQSKKNNDKPQDVITTSEIRKLNEKEPVYIYTSAAGGGFHMIPRTARLCTILTANRIPFTYRDLGTDDEARKVWKTFSKGRSLPGVVRGHNDLIGNWEEIEEANEDYKLRELIYDTI
notes: Aip5 (YFR016C), budding yeast, residues 1110-1233 with three point mutations; Homodimer in the crystal; also called triple mutant Aip5-C-3m; source: E. coli BL21 (DE3), purified

Columns and labels:
[1] = target: G-actin (monomeric actin used in microscale thermophoresis) (rabbit, UniProt P68135 1-377); assay: MST; 2 µM G-actin mixed 1:1 with Aip5 loop peptide (highest stock 2 mM); G-buffer with 0.05% Tween 20; 25 °C; Kd mode fit; settings: both partners purified
[2] = target: the molecule itself; assay: crystal structure; X-ray; sitting drop vapor diffusion at 20 °C; Aip5-C by SeMet-MAD, Aip5-C-3m by molecular replacement

Row | Binder | Kd [1] | binding result [2]
1 | B1 | 99 ± 76 µM | 
2 | B2 |  | binds

Reference: publication PMC6838200, “Polarisome scaffolder Spa2-mediated macromolecular condensation of Aip5 for actin polymerization” (Nature Communications, 2019)
